Like-named read-outs stand apart in the source and are kept apart here. Ends that are not written are not given here.

Here are results for 9 molecules from patent publication US7517850B2, “Calcium phosphate nanoclusters and their applications” (priority 1999, dated 2009).

Data set [1] is described as follows: Test for nanocluster formation (absence of precipitation). Type of data set: physicochemical. Particulars: standard conditions for β-casein phosphopeptide nanoclusters modified to the smallest extent; absence of precipitation = nanocluster-like particles. From the text: Nanocluster formation was investigated with the following phosphoproteins, phosphoprotein mixtures, phosphopeptides and phosphopeptide mixtures: • 1. Whole casein • 2. Mixtures of β- and κ-caseins • 3. β-casein 5P • 4. A commercial phosphopeptide mixture supplied by MD foods and derived from casein, containing a large number of phosphopeptides as described by Ellegard et al. (1999). • 5. A phosphopeptide mixture derived from a digestion of whole casein with protease XIV from Streptomyces griseus, and papain type IV containing αs1-casein 2P (f46-51), αs1-casein 4P (f61-70), β-casein 4P (f11-21), αs2-casein 3P (f5-12), αs2-casein 4P (f49-61) and αs2-casein 2P (f126-133). • 6. β-casein phosphopeptides 4P (f1-25) or 4P (f2-25) or 5P (f1-42) • 7. Cyanogen bromide cleavage fragments αs1-casein 2P (f1-54) or αs1-casein 6P (f61-123). • […]. Tryptic phosphopeptides αs1-casein 1P (f104-119) or αs1-casein 2P (f43-58) or αs1-casein 5P (f59-79) or αs1-casein 7P (f43-79)
A test for nanocluster formation was applied in which the standard conditions for the formation of nanoclusters from the β-casein phosphopeptide were modified to the smallest extent possible and applied to the other peptides or peptide mixtures. […] Nanoclusters were found with each of the 6 phosphopeptides and confirmed experimentally by X-ray scattering measurements.

The nature of data set [2]: Confirmation of nanocluster formation by small angle X-ray or neutron scattering. The format is physicochemical. An excerpt:
The formation of nanoclusters, nanocluster-like particles or larger particles composed of assemblies of nanoclusters has been established by small angle X-ray or neutron scattering experiments, as described by Holt et al. (1996, 1998).

For data set [3] the following is noted: small angle X-ray or neutron scattering; Holt et al., 1996, 1998; cited from earlier work.

Consider “αs1-casein 1P (f104-119): tryptic phosphopeptide of αs1-casein, item 8 (YKVPQLEIVPNSAEER; also: 1 phosphorylation, site not given here; UniProt P02662 119-134, looked up, fragment)”, for which the “outcome of test for nanocluster formation” value (shortened to “outcome of test”) in data set [1] is “No stable nanocluster solution was formed”. The “Conclusion (nanocluster formation)” value in data set [2] was “Precipitation of calcium phosphate”.
For the molecule “αs1-casein 2P (f1-54): cyanogen bromide cleavage fragment of αs1-casein, item 7 (RPKHPIKHQGLPQEVLNENLLRFFVAPFPEVFGKEKVNELSKDIGSESTEDQAM; also: 2 phosphorylations, sites not given here; UniProt P02662 16-69, looked up, fragment)”, in data set [1], the “outcome of test” value is “failed to dissolve”.
In the case of “αs1-casein 2P (f43-58): tryptic phosphopeptide of αs1-casein, item 8 (DIGSESTEDQAMEDIK; also: 2 phosphorylations, sites not given here; UniProt P02662 58-73, looked up, fragment)”, in data set [1], the “outcome of test” value is “No stable nanocluster solution was formed”. For the same molecule, the “Conclusion (nanocluster formation)” value in data set [2] is listed as “Precipitation of calcium phosphate”.
The corresponding values for “αs1-casein 5P (f59-79): tryptic phosphopeptide of αs1-casein, item 8 (QMEAESISSSEEIVPNSVEQK; also: 5 phosphorylations, sites not given here; UniProt P02662 74-94, looked up, fragment)” are “Nanoclusters were formed” and “Clear solution of stable nanoclusters in the normal”.
For “αs1-casein 7P (f43-79): tryptic phosphopeptide of αs1-casein, item 8 (DIGSESTEDQAMEDIKQMEAESISSSEEIVPNSVEQK; also: 7 phosphorylations, sites not given here; UniProt P02662 58-94, looked up, fragment)”, the “outcome of test” value in data set [1] is given as “Nanoclusters were formed”. In data set [2], the “Conclusion (nanocluster formation)” value is on record as “Clear solution of stable nanoclusters in the normal”.
For “β-casein phosphopeptide 4P (f1-25): β-casein phosphopeptide residues 1-25 with 4 phosphorylated residues, item 6 (RELEELNVPGEIVESLSSSEESITR; also: 4 phosphorylations, sites not given here; UniProt P02666 16-40, looked up, fragment)”, in data set [3], the “Conclusion (nanocluster formation)” value was “Monodisperse nanoclusters formed (Holt et al., 1996,”.
In the case of “β-casein phosphopeptide 4P (f2-25): β-casein phosphopeptide residues 2-25 with 4 phosphorylated residues, item 6 (ELEELNVPGEIVESLSSSEESITR; also: 4 phosphorylations, sites not given here; UniProt P02666 17-40, looked up, fragment)”, in data set [2], the “Conclusion (nanocluster formation)” value is given as “Monodisperse nanoclusters formed”.
Regarding “β-casein phosphopeptide 5P (f1-42): β-casein phosphopeptide residues 1-42 with 5 phosphorylated residues, item 6 (RELEELNVPGEIVESLSSSEESITRINKKIEKFQSEEQQQTE; also: 5 phosphorylations, sites not given here; UniProt P02666 16-57, looked up, fragment)”, the “Conclusion (nanocluster formation)” value in data set [3] was “Monodisperse nanoclusters formed (Holt et al., 1996,”.

B1: β-casein 5p: β-casein phosphoprotein with 5 phosphorylated residues, item 3 (protein, UniProt P02666 16-224, looked up)
Beta-casein: RELEELNVPGEIVESLSSSEESITRINKKIEKFQSEEQQQTEDELQDKIHPFAQTQSLVYPFPGPIPNSLPQNIPPLTQTPVVVPPFLQPEVMGVSKVKEAMAPKHKEMPFPKYPVEPFTESQSLTLTDVENLHLPLPLLQSWMHQPHQPLPPTVMFPPQSVLSLSQSKVLPVPQKAVPYPQRDMPIQAFLLYQEPVLGPVRGPFPIIV
modifications: 5 phosphorylations
notes: β-casein phosphoprotein with 5 phosphorylated residues, item 3
For the molecule B1, the “outcome of test” value in data set [1] is given as “underwent an unlimited aggregation”. The “Conclusion (nanocluster formation)” value in data set [2] is recorded as “Uncontrolled precipitation of the β-casein aggregates”.
